± gives the uncertainty stated by the source.
Test: amyloid nucleation score (Sup35N fusion, yeast selection) (log enrichment); library NNK3; higher = more nucleation; inactive = no reads after selection
Summary of the method: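 The nucleation score is a DiMSum log enrichment of output over input reads, centred on the mode score of non-aggregating sequences. Sequences under 100 input reads were excluded, and reads came from Illumina sequencing of plasmid inserts. Psi-negative yeast expressing Sup35N fused to peptides of 20 random codons were induced with 100 μM copper sulfate for 24 hours and grown 7 days at 30°C on medium lacking adenine and uracil. Random libraries had three technical output replicates.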

| Substance | amyloid nucleation score |
| --- | --- |
| RFLFSCCVGL | 2.3 ± 0.06 |
| RFNMCGEYGKVHGLGW | inactive |
| RFPEAVPNKWSGPPTFNPHE | inactive |
| RFSRRYMHGFS | inactive |
| RFSTGDIWRYPDGNMFWTSL | inactive |
| RFSVNGNR | inactive |
| RFSYWGKDRSRVSNL | inactive |
| RFYKRICLLYPTRSEGESGF | inactive |
| RGAPVFCFYKWFSTATCSIA | inactive |
| RGKNVAWWVTSSTKSYSAK | 0.304 ± 0.23 |
| RGLYKVD | inactive |
| RGSCRLVNLEPCRIM | inactive |
| RGSGWRTYVCTGSYALRV | inactive |
| RGSSTIYNETGLLGRLKGM | inactive |
| RGTKAYMGVVCSTPTIFCPN | inactive |
| RHGEIYAHYKMFVCRLDEVR | inactive |
| RHGVTMRLSCQTWHFAFHLR | inactive |
| RHMFVSSSKRWKFSSNTYRT | inactive |
| RHSILVSYFHWWFRDWKPFW | inactive |
| RICSQMLFFRYESRHFWSFV | inactive |
| RIGAYYPMFIFAVLVGSALG | inactive |
| RIHDNVPSIVWFWEPPHPRH | inactive |
| RIMGSPQSDS | inactive |

| Substance | amyloid nucleation score |
| --- | --- |
| RINMELLWIFGGSTWFINRG | 1.93 ± 0.084 |
| RIPTLIFRLILIMFHDFDFQ | inactive |
| RIRCVMFGGRKSRRKLDSVV | inactive |
| RIRKRQCWSFVLLLYCGCVT | inactive |
| RISINGFNNLNYLLS | 1.39 ± 0.1 |
| RITKRRHSVIPCP | inactive |
| RIVNS | inactive |
| RKHLRPQSMRVDSGETLRVL | inactive |
| RKLGLEYGITMSCASLLALR | inactive |
| RKLKHLS | inactive |
| RKLLCWTRDGRIWMRVEGTA | inactive |
| RKLTCTSGLA | inactive |
| RKMDLVDKSMSTIGYLAHHG | -0.63 ± 0.82 |
| RKMMCKWLCNIKGYIIVV | inactive |
| RKNVRMMA | inactive |
| RKSHD | inactive |
| RKYSVG | inactive |
| RLCSFTRYLNGATSANNVKL | inactive |
| RLCSVGLAVYYMACSEYKMR | 0.103 ± 0.29 |
| RLDGCM | inactive |
| RLFKNGSMGRSYGSVYRPV | -0.111 ± 0.81 |
| RLGMWVFWCRL | inactive |
| RLHIVETLSYLNACWPDFSG | inactive |

| Substance | amyloid nucleation score |
| --- | --- |
| RLHVRCNCDLSDGVPRAVCE | 0.599 ± 0.23 |
| RLLSKVSNFREYTSSSVPDV | inactive |
| RLRCLYTSEISVGIGNNWVS | inactive |
| RLSQCRLLVFDGTQVFMCCV | 2.01 ± 0.077 |
| RLTGCRWDSPVTKVNIRWVY | inactive |
| RLTTLPIRSPFTLGYTFARK | inactive |
| RLVAFGRRWDESSKVECMWS | inactive |
| RLVAVVRCYVLCGKIWGKST | -0.484 ± 0.89 |
| RLVSLSPNLLMYSNVLDYLK | inactive |
| RLWICVSQILVILVDALILG | inactive |
| RLWLYR | inactive |
| RLWYGTYWFT | inactive |
| RLYDIVCYSTVVL | 1.99 ± 0.074 |
| RLYKKGRGPFHLTPAPRD | inactive |
| RMFLHLTRNKCVRVKKASQE | inactive |
| RMGIYCGDRFQ | inactive |
| RMNQIRLPGRCTY | inactive |
| RNANSNWSRPVLNAWSLNEV | inactive |
| RNGRKYSIWLVGVSH | inactive |
| RNMLVAPDSCMASRWYGVHL | inactive |
| RNSKWWLYLKSARSCYLGWW | inactive |
| RNSRTVRRDLQINCR | inactive |
| RNVCMSEVGSVDKSSLLHGN | inactive |

| Substance | amyloid nucleation score |
| --- | --- |
| RNWLYLFVRRLISWLNKWGK | inactive |
| RNYDFSKGITVSWRLLHA | inactive |
| RPLTVKKY | -0.538 ± 1.4 |
| RPMRACRGMEVRGFSSEVSA | inactive |
| RPRFWICMSYMEQSSDNRRT | 1.37 ± 0.084 |
| RPRRTCWM | inactive |
| RPVKCSLYMTGQLQRLDGVN | 0.915 ± 0.14 |
| RPWHPLLTSDVVNCWLKIRV | inactive |
| RQCMKRLWDSCYKKAWIKYV | inactive |
| RQEFIGWFSTSALSAQFLS | inactive |
| RQIRPMRTLSGTLGAGDRCH | inactive |
| RQIVKPASQVILCRCLCTGA | 1.04 ± 0.1 |
| RQQRLRRKPLFWDNQAKANY | 0.211 ± 0.24 |
| RQVSPTVVCSIILSLPFDPC | 0.396 ± 0.22 |
| RRAAEKFFNEPTWERHLVSG | inactive |
| RRELWRLRTVVCTMNLLYYA | inactive |
| RRFIIPRAVAFTSL | inactive |
| RRGRPVLCRLHPGRWLRSRR | -0.401 ± 1.8 |
| RRGYLVYFGSTFYYSSNSFW | 0.468 ± 0.19 |
| RRLCKYYLQVKSPCIGHDCQ | inactive |
| RRLTGFMQVVRKNWVLGELA | 1.04 ± 0.21 |
| RRMLTRTFRG | inactive |
| RRPVYIIASNLDYMQTSCIT | inactive |

| Substance | amyloid nucleation score |
| --- | --- |
| RRSISGKVLFTRIQSYLLKF | -0.759 ± 1 |
| RRSKISLS | inactive |
| RRSNSHYM | inactive |
| RRSRCVRSVYRFRMSRARPP | inactive |
| RRTMFPAMIIS | inactive |
| RSCLCEWWDVGSSVSASTLL | inactive |
| RSDCNGSSKYLISDHFP | inactive |
| RSDGRCEYKSWCNVQLKVE | inactive |
| RSDMTAHDTNDAVQLEPSVE | inactive |
| RSEPIKVVWVSISQPMDFFC | 2.13 ± 0.077 |
| RSGSMWCLSMLVVHLDELTD | inactive |
| RSILDM | inactive |
| RSKLYEISRIRKMGHPHTAE | inactive |
| RSLAEGFYGAVPEGSVRFRN | inactive |
| RSMQFGVIYAYYHRMAG | inactive |
| RSMSTGNH | inactive |
| RSRKLCNPIMILLQVFGNYG | 1.43 ± 0.07 |
| RSSESNIICTTLRYLSVVVY | inactive |
| RSSPEDPLTSFLGYTGMTAS | inactive |
| RSTFYIISCRTVDWESVSTR | inactive |
| RSTWEQ | inactive |
| RSVKVYLRCSLSNCVILLGT | 2.58 ± 0.049 |
| RSVVEWGS | inactive |

| Substance | amyloid nucleation score |
| --- | --- |
| RSVVMYALSIFYVRFTANQN | 0.755 ± 0.23 |
| RSWLLSSEFVVVIFSNTEGM | 1.24 ± 0.16 |
| RSYARRSTGILAR | -0.112 ± 0.75 |
| RSYFGMARGAHFSAHFLLFL | inactive |
| RTFPNTWHAMIFGCVNKPNC | inactive |
| RTGSHEMLIICFCVTSVL | inactive |
| RTHGCCSVCNTEFADGVVLS | inactive |
| RTIFFFLDSMLIYSRAVCRL | inactive |
| RTLAIRYSSNPLTIRLLQSL | inactive |
| RTMSSLLFQFDSFLKLIKSE | inactive |
| RTRCAPLDMVEL | inactive |
| RTSYLVLMKCYSALDYGVIA | inactive |
| RTVIGLPASMLLSCDHISFV | inactive |
| RVARMFGEY | inactive |
| RVCDMVNTASWAIICSCLHL | 2.05 ± 0.068 |
| RVCRVAPLPAVKGLGVSQNS | inactive |
| RVDRLALLCSTSGINSDFGR | inactive |
| RVDSYVSMTYHIRWFFVRTE | inactive |
| RVEVSSTGV | inactive |
| RVFEVEKLVEIGGTMLHESN | inactive |
| RVKQQLNLP | inactive |
| RVLATFCG | inactive |
| RVLNS | inactive |

| Substance | amyloid nucleation score |
| --- | --- |
| RVLRLLRVDAGHNLI | -0.029 ± 0.81 |
| RVRLIH | inactive |
| RVRYGGNKMHNSRKLACGQG | 0.743 ± 0.18 |
| RVSFTSITWVSSLM | 0.003 ± 0.98 |
| RVTGTCGFRRDGFESWRNTR | inactive |
| RVVCAD | inactive |
| RWAKSEAVLLVFGEFSLVGW | inactive |
| RWFDTFLCLSR | inactive |
| RWFRLSWLEISKYA | inactive |
| RWLASNVDPKITSEIQPGAS | inactive |
| RWPEPFSWFRFDYQIRDVVF | inactive |
| RWSVLAVSCM | inactive |
| RWSVLILNPPISKKHPDDK | 0.345 ± 0.69 |
| RWYAVLYHLV | inactive |
| RYCIVLTDNVNTLHNLIIMV | inactive |
| RYFAMGFRNSCYL | 2.02 ± 0.065 |
| RYGDWLHHS | inactive |
| RYGFCHYCYRVLDFDVDVRW | 0.881 ± 0.14 |
| RYGLVVIAVVSAVHDGDACS | inactive |
| RYKVD | inactive |
| RYLDQLI | inactive |
| RYSEWPAD | inactive |
